How the values were obtained:
Type in all cases: biochemical
four mismatch primers = test: PCR screen of clones with four mismatch primers; conditions: 292 base pair product, 50 cycles of PCR
Experimental: The resultant clones from both CSR and CST were screened and ranked by PCR assay. Briefly, 2 μl of induced cells were added to 20 μl of PCR mix with the relevant 4 mismatch primers. Clones that produced a band were then subjected to further analysis and their activity on single, double and quadruple mismatch primers (single mismatch primers: 5′-CAGGAAACAGCTATGACAAAAATCTAGATAACGAGGGA-3′ (SEQ ID NO: 48) and 5′-GTAAAACGACGGCCAGTACCACCGAACTGCGGGTGACGCCAAGCC 3′ (SEQ ID NO: 49); double mismatch primers: CAGGAAACAGCTATGACTCGACAAAAATCTAGATAACGACC (SEQ ID NO: 50) and GTAAAACGACGGCCAGTTTATTAACCACCGAACTGC (SEQ ID NO: 51); four mismatch primers above.) was investigated. Polymerases that could extend all of these mismatches were found, though many polymerases could do only one of the mismatches and […].
The best first and second round clones were shuffled as described above and subjected to another round of CSR. The same two sets of mismatch primers with four mismatches at their 3′ end were used in the emulsion as two separate sources of selective pressure. This was then dealt with as above and the resultant clones were screened and ranked by PCR assay (as above). Once again, polymerases that could extend all of these mismatches were found. In particular, clones 3B5.

[1] = system: primers with an abasic site seven bases from their 3′ end; test: Abasic site bypass in PCR; conditions: 176 bp product, 20 cycles of PCR
Experimental: FIG. 10. A list of polymerases selected to extend four mismatches were assayed for their ability to extend abasic sites in PCR. Primers with an abasic site seven bases from their 3′ end were designed. Such primers will prevent exponential amplification of the target sequence, restricting it to […] amplification, unless the abasic site is bypassed. […] (A) Screen which identified clone A10. (B) A further 4 polymerases that display good abasic site bypass. Lane M: markers, Hae III digest of Φ X174.
A list of polymerases selected to extend four mismatches were assayed for their ability to extend abasic sites in PCR (FIG. 10).

[2] = system: abasic sites and 5-hydroxy hydantoins; test: Hairpin ELISA lesion bypass screen; conditions: ELISA based activity screen
Excerpt: The below protocol is a sensitive method to measure polymerase activity both for the incorporation of unnatural nucleotide substrates (added to the reaction mixture) or the extension or replication of unnatural nucleotide substrates (incorporated as part of the hairpin oligo).
The assay comprises a hairpin oligonucleotide which constitutes both primer and template in one. In contains as part of the hairpin a biotinylated dU residue, which allows capture of the hairpin oligonucleotide on streptavidin-coated surfaces.
The oligonucleotide folds up into a hairpin with a 5′ overhang, which serves as the template strand for the polymerase (typical sequence: 5′-AGCTACCATGCCTGCACGCAGTCGGCATCCGTCGCGACCACG TT5 TTCGTGGTCGCGACGGATGCCG-3′ (SEQ ID NO: 52), bases involved in hairpin formation are underlined, 3′ base is in bold, 5=dU-biotin).
Extension reactions are carried out in the presence of small amounts of a labelled nucleotide typically DIG-16-dUTP. Product is captured (for example on a streptavidin coated ELISA plate) and incorporation of labelled nucleotide into the product strand is measured (using for example an anti-DIG antibody) and taken as a measure of polymerase activity. […]

Molecule | extension of primers containing four mismatches in PCR (four mismatch primers) | extension of primers containing four mismatches in PCR (four mismatch primers; listed as D1) | amplification product in PCR with abasic site primers [1] | proficiency at lesion bypass compared with wild type Taq [2]
3D1: third round clone, four mismatch extension; SEQ ID NO: 98 (protein, Mutant Taq polymerase) MAMLPLFEPKGRVLLVDGHHLAYRTFFALKGPTTSRGEPVQVVYGFAKSLLKALKEDGYKAVFVVFDAKAPSFRHKAYEAYRAGRAPTPEDFPRQLALIKELVDLLGFTRLEVPGYEADDVLATLAKKAEKEGYEVRILTADRGLYQLVSDRVAVLHPEGHLITPEWLWEKYGLRPEQWVDFRALVGDPSDNLPGVKGIGEKTALKLLKEWGSLENLLKNLDRVKPENVREKIKAHLEDLRLSLELSRVRTDLPLEVDLAQRREPDREGLRAFLERLEFGSLFHEFGLLESPKALEEAPWPPPEGAFVGFVLSRKEPMWADLLALAAARGGRVHRAPEPYKALRDLKEARGLLAKDLSVLALREGLGLPPGDDPMLLAYLLDPSNTTPEGVARRYGGEWTEEAGERAALSERLFANLWGRLEGEERLLWLYREVERPLSAVLAHMEATGVRLDVAYLRALSLEVAEEIARLEAEVFRLAGHPFNLNSRDQLEMVLFDELRLPALGKTQKTGKRSTSAAVLEALREAHPIVEKILQYRELTKLKSTYIDPLSDLIHPRTGRLHTRFNQTATATGRLSSSDPNLQNIPVRTPLGQRIRRAFIAEEGWLLVVLDYSQIELRVLAHLSGDENLIRVFQEGRDIHTETASWMFGVPREAVDPLMRRAAKTINFGVLYGMSAHRLSQELAIPYEEAQAFIERYFQSFPKVRAWIEKTLEEGRRRGYVETLFGRRRYVPDLEARVKSVREAAERMAFNMPVQGTAADLMKLAMVKLFPRLGETGARMLLQVHDELVLEAPKERAEAVARLAKEAMEGVYPLAVPLEVEVGIGEDWLSAKG | able to extend primers containing four mismatches | can also extend four mismatched primers in PCR | produced an amplification product | up to two orders of magnitude
3A10: third round clone, abasic site bypass; SEQ ID NO: 86 (protein, Mutant Taq polymerase) MAMLPLFEPKGRVLLVDGHHLAYRTFFALKGLTTSRGEPVQVVYGFAKSLLKALKEDGYKAVFVVFDAKAPSFRHKAYEAYRAGRAPTPQDFPRQLALIKELVDLLGFTRLEVPGYEADDVLATLAKKAEKEGYEVRILTADRGLYQLVSDRVAVLHPEGHLITPEWLWEKYGLRPEQWVDFRALVGDPSDNLPGVKGIGEKTALKLLKEWGSLENLLKNLDRVKPENVREKIKAHLEDLRLSLELSRVRTDLPLEVDLAQGREPDREGLRAFLERLEFGSLLHEFGLLESPKALEEAPWPPPEGAFVGFVLSRKEPMWADLLALAAARGGRVHQAPEPYKALRDLKEARGLLAKDLSVLALREGLGLPPGDDPMLLAYLLDPSNTTPEGVARRYGGEWTEEAGERAALSERLFANLWGRLEGEERLLWLYREVERPLSAVLAHMETTGVRLDVAYLRALSLEVAEEIARLEAEVFRLAGRPFNLNSRDQLERVLFDELGLPAIGKTEKTGKRSTSAAVLEALREAHPIVEKILQYRELTKLKSTYIDPLPDLIHPRTGRLHTRFNQTATATGRLSSSDPNLQNIPVRTPLGQRIRRAFIAEEGWLLVVLDYSQMELRVLAHLSGDENLIRVFQEGKDIHTQTASWMFGVPPEAVDPLMRRAAKTVNFGVLYGMSAHRLSQELSIPYEEAVAFIERYFQSFPKVRAWIEKTLEEGRRRGYVETLFGRRRYVPDLNARMKSVRGAAERMAFNMPVQGTAADLMKLAMVKLFPRLREMGARMLLQVHDELLLEAPQARAEEVAALAKEAMEKAYPLAVPLEVEVGIGEDWLSAKE | cannot |  | produced an amplification product | up to two orders of magnitude

— patent US9096835B2, “DNA polymerase” (Medical Research Council, priority 2003, dated 2015)
